Test results from publication PMC12435574.

Legend:
[1] = confocal immunofluorescence (LSCM), HCT116; settings: glycan lost; control: wild type
[2] = immunofluorescence co-localisation with calnexin and GM130; settings: glycan lost; control: cells without S76A mutation
[3] = confocal co-localisation with phalloidin, calnexin, GM130; settings: glycan lost; control: untreated

Protein | other: collagen I secretion by cells [1] | other: response of collagen I secretion/procollagen transport to kaempferol or OGT knockdown [2] | localisation_or_trafficking [3]
Hsp47: S76A (protein) parent chain: MRSLLLLSAFCLLEAALAAEVKKPAAAAAPGTAEKLSPKAATLAERSAGLAFSLYQAMAKDQAVENILVSPVVVASSLGLVSLGGKATTASQAKAVLSAEQLRDEEVHAGLGELLRSLSNSTARNVTWKLGSRLYGPSSVSFADDFVRSSKQHYNCEHSKINFRDKRSALQSINEWAAQTTDGKLPEVTKDVERTDGALLVNAMFFKPHWDEKFHHKMVDNRGFMVTRSYTVGVMMMHRTGLYNYYDDEKEKLQIVEMPLAHKLSSLIILMPHHVEPLERLEKLLTKEQLKIWMGKMQKKAVAISLPKGVVEVTHDLQKHLAGLGLTEAIDKNKADLSRMSGKKDLYLASVFHATAFELDTDGNPFDQDIYGREELRSPKLFYADHPFIFLVRDTQSGSLLFIGRLVRPKGDKMRDEL | decreases | abolishes | 
Hsp47: OSMI-1 (protein) parent chain: MRSLLLLSAFCLLEAALAAEVKKPAAAAAPGTAEKLSPKAATLAERSAGLAFSLYQAMAKDQAVENILVSPVVVASSLGLVSLGGKATTASQAKAVLSAEQLRDEEVHAGLGELLRSLSNSTARNVTWKLGSRLYGPSSVSFADDFVRSSKQHYNCEHSKINFRDKRSALQSINEWAAQTTDGKLPEVTKDVERTDGALLVNAMFFKPHWDEKFHHKMVDNRGFMVTRSYTVGVMMMHRTGLYNYYDDEKEKLQIVEMPLAHKLSSLIILMPHHVEPLERLEKLLTKEQLKIWMGKMQKKAVAISLPKGVVEVTHDLQKHLAGLGLTEAIDKNKADLSRMSGKKDLYLASVFHATAFELDTDGNPFDQDIYGREELRSPKLFYADHPFIFLVRDTQSGSLLFIGRLVRPKGDKMRDEL |  |  | changes
